We go through five molecules from US20150335669A1 (SAMSUNG ELECTRONICS, published 2015).

Assay [1] concerns the target T1, human c-Met/Fc fusion protein (R&D Systems) (human, UniProt P08581 25-932).
T1 construct: Bought reagent; treated here as the same reagent; also called c-Met-Fc (#358-MT/CF, R&D Systems); human c-Met/Fc protein; not shown: Fc part of the bought fusion protein
Briefly: SPR, Biacore T100; antibody captured by human Fab binder on CM5 chip, c-Met-Fc injected. The protocol:
To confirm whether the prepared PEG-introduced antibodies containing PEG with various molecular weights can maintain the binding affinity to the antigen, the binding affinity of the prepared PEG-introduced antibodies to c-Met was measured using Biacore T100(GE) and compared with that of an antibody with no PEG (Ab).
In particular, human Fab binder (GE Healthcare) was fixed on a surface of CM5 chip (#BR-1005-30, GE) according to the manufacturer's manual. About 90 to 120 Ru of each of the PEG-introduced antibodies was captured, and c-Met-Fc (#358-MT/CF, R&D Systems) was injected at various concentrations into the captured PEG-introduced antibody. 10 mM Glycine-HCl (pH 1.5) solution was injected thereto to regenerate the surface. In order to measure affinity, the data obtained from this experiment was fitted using BIAevaluation software (GE Healthcare, Biacore T100 evaluation software).

Assay [2] has as its target T1, human c-Met/Fc fusion protein (R&D …). Kind of assay: ELISA, human c-Met/Fc fusion protein coated on the plate, hybridoma culture supernatant. The protocol: The hybridoma cell culture obtained in Reference Example 1.1.2 was added in an amount of 50 μL to each well of the plates and incubated for 1 hour. The cells remaining unreacted were washed out with a sufficient amount of Tris-buffered saline and Tween 20 (TBST). Goat anti-mouse IgG-horseradish peroxidase (HRP) was added to the plates and incubated for 1 hour at room temperature. The plates were washed with a sufficient amount of TBST, followed by reacting the peroxidase with a substrate (OPD). Absorbance at 450 nm was measured on an ELISA reader.

T1 sequence (P08581 25-932 limits assumed): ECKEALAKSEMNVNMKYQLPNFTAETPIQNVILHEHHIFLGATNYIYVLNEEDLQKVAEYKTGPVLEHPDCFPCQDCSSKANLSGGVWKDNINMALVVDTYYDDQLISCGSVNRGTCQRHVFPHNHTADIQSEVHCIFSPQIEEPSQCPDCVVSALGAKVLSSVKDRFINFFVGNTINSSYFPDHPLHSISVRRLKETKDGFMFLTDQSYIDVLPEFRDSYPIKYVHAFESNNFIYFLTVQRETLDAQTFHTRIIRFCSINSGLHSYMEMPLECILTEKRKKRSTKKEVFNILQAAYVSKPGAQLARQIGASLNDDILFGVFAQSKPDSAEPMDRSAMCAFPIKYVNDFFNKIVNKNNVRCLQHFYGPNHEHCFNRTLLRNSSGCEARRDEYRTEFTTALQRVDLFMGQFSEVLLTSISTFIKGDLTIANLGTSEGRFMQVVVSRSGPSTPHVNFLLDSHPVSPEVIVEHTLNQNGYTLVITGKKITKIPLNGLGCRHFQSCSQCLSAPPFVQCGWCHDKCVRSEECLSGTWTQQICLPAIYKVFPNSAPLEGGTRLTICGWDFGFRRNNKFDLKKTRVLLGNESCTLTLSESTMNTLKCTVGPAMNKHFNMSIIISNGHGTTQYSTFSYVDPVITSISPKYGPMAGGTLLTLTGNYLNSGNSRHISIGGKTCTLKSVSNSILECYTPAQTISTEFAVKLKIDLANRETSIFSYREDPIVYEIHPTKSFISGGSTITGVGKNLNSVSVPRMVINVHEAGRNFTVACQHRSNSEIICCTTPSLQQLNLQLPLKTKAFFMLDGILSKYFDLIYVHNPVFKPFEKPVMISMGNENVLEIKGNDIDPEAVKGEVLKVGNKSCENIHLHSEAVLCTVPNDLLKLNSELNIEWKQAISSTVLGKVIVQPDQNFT

B1: PEG-introduced antibody L3-1Y/IgG2 with 30 kDa polyethyleneglycol (antibody, V domains shown)
VH: EVQLVESGGGLVQPGGSLRLSCAASGFTFTDYYMSWVRQAPGKGLEWLGFIRNKANGYTTEYSASVKGRFTISRDNSKNTLYLQMNSLRAEDTAVYYCARDNWFAYWGQGTLVTVSS
VL: DIQMTQSPSSLSASVGDRVTITCKSSQSLLASGNQNNYLAWYQQKPGKAPKMLIIWASTRVSGVPSRFSGSGSGTDFTLTISSLQPEDFATYYCQQSYSRPYTFGQGTKVEIKR
modifications: see heavy chain: the PEG may stand at the N-terminus of a light chain instead; 30 kDa methoxypolyethyleneglycol at the N-terminus of the antibody (N-terminus of a heavy chain or of a light chain; which one is not resolved); mono-PEG per paragraph 213
notes: also called 30kPEG Ab; mono-PEG antibody (30 kDa)
Molecule B1 displayed a dissociation constant Kd in assay [1] of 0.0619 nM.

B2: anti-c-Met antibody L3-1Y-IgG2 (huAbF46-H4-A1 (IgG2 Fc)) (antibody, V domains shown)
VH: B1 VH
VL: B1 VL
notes: also called antibody with no PEG
B2: the Kd in assay [1] was 0.0823 nM.

B3: PEG-introduced antibody L3-1Y/IgG2 with 10 kDa polyethyleneglycol (antibody, V domains shown)
VH: B1 VH
VL: B1 VL
modifications: see heavy chain: the PEG may stand at the N-terminus of a light chain instead; 10 kDa methoxypolyethyleneglycol at the N-terminus of the antibody (N-terminus of a heavy chain or of a light chain; which one is not resolved); mono-PEG per paragraph 213
notes: also called 10kPEG Ab; mono-PEG antibody (10 kDa)
Regarding B3, in assay [1], the dissociation constant Kd stood at 0.0859 nM.

B4: PEG-introduced antibody L3-1Y/IgG2 with 20 kDa polyethyleneglycol (antibody, V domains shown)
VH: B1 VH
VL: B1 VL
modifications: see heavy chain: the PEG may stand at the N-terminus of a light chain instead; 20 kDa methoxypolyethyleneglycol at the N-terminus of the antibody (N-terminus of a heavy chain or of a light chain; which one is not resolved); mono-PEG per paragraph 213
notes: also called 20kPEG Ab; mono-PEG antibody (20 kDa)
In turn, B4 displayed a dissociation constant Kd in assay [1] of 0.0729 nM.

B5: AbF46, mouse monoclonal antibody to c-Met (hybridoma KCLRF-BP-00220) (antibody, V domains shown)
VH: EVKLVESGGGLVQPGGSLRLSCATSGFTFTDYYMSWVRQPPGKALEWLGFIRNKANGYTTEYSASVKGRFTISRDNSQSILYLQMDTLRAEDSATYYCARDNWFAYWGQGTLVTVSA
VL: DILMTQSPSSLTVSAGEKVTMSCKSSQSLLASGNQNNYLAWHQQKPGRSPKMLIIWASTRVSGVPDRFIGSGSGTDFTLTINSVQAEDLAVYYCQQSYSAPLTFGAGTKLELK
notes: Tested as hybridoma culture supernatant in the selection ELISA; also called mouse antibody AbF46
As to B5, the binding result in assay [2] is “binds”.
